Several values for one entry are separate records, joined by “and”; a condition that tells them apart may be missing. Identical values can stand only once.
B2: GajA of the Gabija anti-phage defense system of Bacillus cereus VD045, with a C-terminal (His)6 tag, purified on its own (enzyme, UniProt J8H9C1 1-578, looked up)
chain: MKFSNITIKNFRNFEKVNINLDNKNVIFGMNDIGKTNFLYALRFLLDKEIRKFGFNKSDYHKHDTSKKIEIILTLDLSNYEKDEDTKKLISVVKGARTSANADVFYIALESKYDDKELYGNIILKWGSELDNLIDIPGRGNINALDNVFKVIYINPLVDLDKLFAQNKKYIFEESQGNESDEGILNNIKSLTDQVNQQIGEMTIIKGFQQEITSEYRSLKKEEVSIELKSEMAIKGFFSDIIPYIKKDGDSNYYPTSGDGRRKMLSYSIYNYLAKKKYEDKIVIYLIEEPEISLHRSMQIALSKQLFEQSTYKYFFLSTHSPELLYEMDNTRLIRVHSTEKVVCSSHMYNVEEAYGSVKKKLNKALSSALFAERVLLIEGPSEKILFEKVLDEVEPEYELNGGFLLEVGGTYFNHYVCTLNDLGITHIIKTDNDLKSKKGKKGVYELLGLNRCLNLLGRENLDEITIDIPEDIKGKKKKERLNERKKEIFKQYKNEVGEFLGERIYLSEIDLENDLYSAIGESMKRIFENEDPVHYLQKSKLFNMVELVNNLSTKDCFDVFEHEKFACLKELVGSDRG
notes: GajA, Bacillus cereus VD045, synthetic gene in pET21a; 67.0 kDa as printed; Tetramer by SEC-MALS and analytical SEC; also called individually purified GajA; separately purified GajA; source: E. coli BL21(DE3), purified (HisTrap HP, SEC Superdex 200)
B3: GajB of the Gabija anti-phage defense system of Bacillus cereus VD045, purified on its own, (His)6-MBP tag cleaved by TEV protease (natural protein)
chain: MSREQIIKDGGNILVTAGAGSGKTTILVSKIEADLKENKTHYSIAAVTFTNKAAKEIEGRLGYSSRGNFIGTNDGFVESEIIRPFIKDAFGNDYPDNFTAEYFDNQFASYDKGLQVLKYQNILGTYSNPKKNFKFQLALDILKKSLVARQYIFSKYFKIFIDEYQDSDKDMHNLFMYLKDQLKIKLFIVGDPKQSIYIWRGAEPENFNGLIENSTDFNKYHLTSNFRCCQDIQNYSNLFNEETRSLIKEKNEVQNVISIADDMPISDILLKLTEEKQVLNIEAELVILVRRRNQAIEIMKELNEEGFNFIFIPQTPLDRATPNATLLKEVIKYVKNDRYSIYDLAAEIVGNLSSREIKEIQKIINELLVPNINQVLINQVLINLFAKLEITLDTREITAFTEVMMTNEFDIAFDTNEYLHKIFTVHSAKGLEFNQVIITASDYNVHYNRDTNEHYVATTRAKDKLIVIMDNKKYSDYIETLMKELKIKNIIKSI
notes: GajB, Bacillus cereus VD045, synthetic gene in pET28a with (His)6-MBP and a TEV site; 57.1 kDa as printed; the subdomains of the crystal structure span residues 1-494; the shorter of the two GajB forms that the discussion tells of (the long form has five more N-terminal residues); Monomer by SEC-MALS and analytical SEC; also called individually purified GajB; separately purified GajB; source: E. …

What was measured:
GajB = biological target: T1, GajB (Bacillus cereus VD045, UniProt J8HQ06 1-494); assay: EMSA; 10 uM protein, 5 uM DNA, 5 mM Mg2+, no ATP; EMSA: 5 mM MgCl2, 1 mM DTT, 0.75 uM BSA, 20 mM Tris-HCl pH 7.5, 25 C, 90 min; 2% agarose gel, ethidium bromide; conditions: protein: recombinant; tags: N-terminal His6-MBP removed with TEV protease; label: fluorescein on the 25-mer in helicase assay; 25 bp duplex, 3' overhang 15 nt (T15) on strand 2
T1 sequence: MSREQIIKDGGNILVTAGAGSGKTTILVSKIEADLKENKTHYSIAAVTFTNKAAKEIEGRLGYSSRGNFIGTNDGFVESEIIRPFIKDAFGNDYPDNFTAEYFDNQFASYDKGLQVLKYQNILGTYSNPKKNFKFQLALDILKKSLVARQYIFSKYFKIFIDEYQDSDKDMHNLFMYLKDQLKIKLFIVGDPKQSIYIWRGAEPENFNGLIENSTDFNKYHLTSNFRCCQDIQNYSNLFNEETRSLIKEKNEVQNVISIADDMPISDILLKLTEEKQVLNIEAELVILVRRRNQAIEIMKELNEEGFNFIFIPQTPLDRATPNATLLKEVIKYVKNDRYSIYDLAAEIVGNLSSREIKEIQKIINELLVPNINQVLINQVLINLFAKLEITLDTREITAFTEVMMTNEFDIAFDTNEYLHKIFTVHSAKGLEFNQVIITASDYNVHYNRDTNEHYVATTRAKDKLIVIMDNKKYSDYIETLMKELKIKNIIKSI

GajA;GajB = biological target: T2, GajA;GajB (Bacillus cereus VD045;Bacillus cereus …, UniProt J8H9C1;J8HQ06 1-578;1-494, |); assay: as above; conditions: protein: recombinant;recombinant; chain copies: 4;4; label: fluorescein on the 25-mer in helicase assay; 25 bp duplex, 3' overhang 15 nt (T15) on strand 2
T2 sequence 1: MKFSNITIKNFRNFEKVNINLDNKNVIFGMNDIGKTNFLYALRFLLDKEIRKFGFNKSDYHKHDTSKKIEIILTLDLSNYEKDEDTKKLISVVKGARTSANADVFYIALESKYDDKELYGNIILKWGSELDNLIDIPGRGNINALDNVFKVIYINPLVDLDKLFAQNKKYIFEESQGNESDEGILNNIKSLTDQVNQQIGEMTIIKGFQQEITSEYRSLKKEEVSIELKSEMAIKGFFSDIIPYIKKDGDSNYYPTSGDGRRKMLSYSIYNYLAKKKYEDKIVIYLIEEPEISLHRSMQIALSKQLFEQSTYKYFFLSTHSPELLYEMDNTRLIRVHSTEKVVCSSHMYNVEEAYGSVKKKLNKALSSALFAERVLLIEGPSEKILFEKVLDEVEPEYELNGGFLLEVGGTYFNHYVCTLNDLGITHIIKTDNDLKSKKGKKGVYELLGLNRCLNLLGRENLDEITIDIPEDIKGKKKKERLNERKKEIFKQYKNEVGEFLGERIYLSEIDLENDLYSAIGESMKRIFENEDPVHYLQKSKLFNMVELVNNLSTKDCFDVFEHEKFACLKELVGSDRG
T2 sequence 2: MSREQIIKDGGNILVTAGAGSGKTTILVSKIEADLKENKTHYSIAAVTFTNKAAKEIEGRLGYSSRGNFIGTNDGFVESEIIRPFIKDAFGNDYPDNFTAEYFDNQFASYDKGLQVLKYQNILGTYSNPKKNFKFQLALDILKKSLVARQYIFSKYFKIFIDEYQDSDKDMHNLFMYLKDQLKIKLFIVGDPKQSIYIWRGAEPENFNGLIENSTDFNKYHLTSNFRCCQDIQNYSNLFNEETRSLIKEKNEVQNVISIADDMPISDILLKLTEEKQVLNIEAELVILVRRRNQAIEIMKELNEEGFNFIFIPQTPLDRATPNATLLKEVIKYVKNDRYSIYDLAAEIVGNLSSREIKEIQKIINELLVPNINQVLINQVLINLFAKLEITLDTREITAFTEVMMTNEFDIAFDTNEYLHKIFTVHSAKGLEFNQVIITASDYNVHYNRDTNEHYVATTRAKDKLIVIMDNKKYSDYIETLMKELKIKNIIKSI

UvrD = biological target: T3, UvrD (Escherichia coli DH5alpha, UniProt P03018 1-720); assay: as above; conditions: protein: recombinant; tags: N-terminal His6-MBP removed with TEV protease (as for GajB); label: fluorescein on the 25-mer in helicase assay; 25 bp duplex, 3' overhang 15 nt (T15) on strand 2
T3 sequence: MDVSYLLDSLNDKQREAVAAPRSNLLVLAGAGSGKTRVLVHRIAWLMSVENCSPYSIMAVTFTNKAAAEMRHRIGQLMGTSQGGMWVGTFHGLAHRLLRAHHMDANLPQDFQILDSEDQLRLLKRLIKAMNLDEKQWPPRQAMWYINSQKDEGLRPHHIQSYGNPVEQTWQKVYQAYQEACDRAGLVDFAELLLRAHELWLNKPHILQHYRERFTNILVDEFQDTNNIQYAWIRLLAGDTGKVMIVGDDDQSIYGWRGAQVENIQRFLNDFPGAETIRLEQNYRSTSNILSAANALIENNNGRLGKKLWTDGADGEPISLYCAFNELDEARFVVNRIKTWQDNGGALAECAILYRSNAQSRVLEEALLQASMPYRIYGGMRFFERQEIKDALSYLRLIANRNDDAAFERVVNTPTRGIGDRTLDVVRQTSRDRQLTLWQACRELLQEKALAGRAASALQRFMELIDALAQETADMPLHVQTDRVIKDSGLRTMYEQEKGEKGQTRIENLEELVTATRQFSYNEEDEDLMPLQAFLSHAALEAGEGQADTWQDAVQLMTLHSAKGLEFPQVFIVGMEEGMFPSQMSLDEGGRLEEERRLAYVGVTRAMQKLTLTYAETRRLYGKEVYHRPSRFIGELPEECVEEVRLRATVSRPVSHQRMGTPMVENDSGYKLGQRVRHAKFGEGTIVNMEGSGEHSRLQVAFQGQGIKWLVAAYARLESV

[1] = biological target: B3; assay: ITC; 4°C; 20 μM GajB in the cell titrated with 20 injections of 2 μl of 200 μM GajA; 300 mM NaCl, 1 mM TCEP, 10% glycerol, 20 mM HEPES pH 7.5; triplicate; conditions: both partners purified
[2] = biological target: the molecule itself; assay: SEC-MALS + SEC; each protein alone; Superdex 200 Increase 10/300 GL with miniDAWN/Optilab, 300 mM NaCl, 2 mM DTT, 5% glycerol, 20 mM HEPES pH 7.5, 20 μM, 25 °C; analytical SEC in the same buffer
[3] = biological target: T4, GajB of the Gabija anti-phage defense system of Bacillus cereus VD045, purified on its own, (His)6-MBP tag … (Bacillus cereus VD045, UniProt J8HQ06 1-494); assay: ITC
T4 chain: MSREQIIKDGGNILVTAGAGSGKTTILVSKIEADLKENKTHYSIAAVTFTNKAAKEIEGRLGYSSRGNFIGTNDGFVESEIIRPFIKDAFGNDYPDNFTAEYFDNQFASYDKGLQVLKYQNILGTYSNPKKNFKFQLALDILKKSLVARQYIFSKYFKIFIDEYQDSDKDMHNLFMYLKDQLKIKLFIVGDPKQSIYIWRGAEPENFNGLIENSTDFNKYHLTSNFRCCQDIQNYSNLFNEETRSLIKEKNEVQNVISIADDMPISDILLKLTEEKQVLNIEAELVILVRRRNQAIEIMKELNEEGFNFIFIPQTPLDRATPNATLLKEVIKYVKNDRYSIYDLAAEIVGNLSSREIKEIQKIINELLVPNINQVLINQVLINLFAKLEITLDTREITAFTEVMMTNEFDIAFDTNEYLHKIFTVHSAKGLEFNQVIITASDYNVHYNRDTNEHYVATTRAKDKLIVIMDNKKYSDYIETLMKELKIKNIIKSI

[4] = biological target: B2; assay: SEC-MALS; GajA pre-incubated with an excess of GajB (molar ratio 4:8); Superdex 200 Increase 10/300 GL, 300 mM NaCl, 2 mM DTT, 5% glycerol, 20 mM HEPES pH 7.5, 25 °C; conditions: both partners purified
[5] = biological target: B2; assay: ITC; 4°C; 20 μM GajB in the cell titrated with 20 injections of 2 μl of 200 μM GajA; 300 mM NaCl, 1 mM TCEP, 10% glycerol, 20 mM HEPES pH 7.5; triplicate; conditions: both partners purified
[6] = biological target: B2; assay: SEC; analytical SEC, Superdex 200 10/300 GL; 300 mM NaCl, 2 mM DTT, 5% glycerol, 20 mM HEPES pH 7.5; samples 20 μM each, incubated at 4°C for 1 h before loading; also GajA pre-incubated with increasing amounts of GajB; conditions: both partners purified

B1: 3'-tailed dsDNA (dsDNA)
DNA 1: TCGGTACGACCTGCGAGCACTGCTT
DNA 2: AAGCAGTGCTCGCAGGTCGTACCGATTTTTTTTTTTTTTT
- binding result (GajB): no binding
- binding result (GajA;GajB): no binding
- binding result (UvrD): binds

Binder: B2
- stoichiometry N [1]: ~1
- stoichiometry N [2]: 4
- Kd [3]: 54.3 nM and 36.9 nM

Binder: B3
- stoichiometry N [4]: 4 GajB monomers per GajA tetramer (4:4)
- Kd [5]: ~46.4 nM
- stoichiometry N [6]: 4 GajB monomers per GajA tetramer

— paper PMC10681800, “Structural and functional investigation of GajB protein in Gabija anti-phage defense” (Nucleic Acids Research, 2023)
